Data as given in patent US20070059727A1.

Target: microtubules assembled from fluorescein-modified bovine brain tubulin (α-/β-tubulin heterodimers) (bovine)
Test: cell-based or functional assay

average MT length after 5 min of polymerization (MTs on GST-γ-tubulin-functionalized gold pads against MTs grown in solution): 1.68 micron | average MT length after 10 min of polymerization (MTs on GST-γ-tubulin-functionalized gold pads against MTs grown in solution): 3.47 micron
Substance: Glutathione S-Transferase (GST)-tagged γ-Tubulin fusion protein (from UniProt P23258 1-451)
